In patent US20100285583A1, “COMPOUNDS AND METHODS FOR INHIBITING PLATELET AGGREGATION” (priority 2009, published 2010):

Columns and labels:
Human washed platelets = experiment: Platelet adhesion assay; format: cell-based; details: 1.9 μM, TRAP
Experimental: Human washed platelets were incubated with BSA, Dab2 PTB or Dab2 PTB^4M (1.9 μM each) for 5 min at room temperature in the presence of 0.25 g/L fibrinogen. Aggregation was initiated by the addition of 10 μM TRAP, and reactions were incubated 20 min at 37° C. Samples were fixed with 3.7% formaldehyde in PBS, stained with Wright stain, and photographed. Wright stain was eluted with 20% ethanol, and absorbance was quantified at 415 nm.

[1] = Surface plasmon resonance, immobilized sulfatide liposomes; details: SPR, estimated; read-out: dissociation constant (KD), sulfatide binding
Experimental: Surface plasmon resonance (SPR) binding experiments were performed on a BIAcore X instrument using L1 sensorchips coated with ˜0.5 mM of mixed sulfatides or PtdIns(4,5)P2 size calibrated liposomes. N-PTB domain or its mutants binding experiments were performed in a degassed solution containing 10 mM Tris-HCI (pH 7.4) and 150 mM NaCl. This buffer was used during equilibration, association and dissociation phases. Proteins were added to this buffer at the indicated concentrations. Regeneration of the phospholipid bilayer after dissociation phase was carried out using 20 mM NaOH. For competition SPR, increasing molar amounts of dioctanoyl PtdIns(4,5)P2 were preincubated with 5 μM N-PTB for 20 min at room temperature. The entire reaction was then exposed to an L1 sensorchip containing immobilized sulfatide liposomes (˜0.5 mM).

[2] = CD spectroscopy, secondary structure composition; format: physicochemical; details: 5 μM construct, DICHROWEB/CDSSTR
Experimental: Spectra were collected using a Jasco J-720 spectropolarimeter. Far-UV CD spectra were measured for Dab2 PTB constructs (5 μM in 5 mM Tris, 100 mM potassium fluoride, 100 μM DTT, pH 6.8) using a 1 mm-slit-width cuvette. Five accumulated scans were recorded for each sample between 190 and 260 nm at 20° C. in increments of 0.5 nm. Background of buffer alone was subtracted from each spectrum. Raw data were converted to mean residue ellipticity and analyzed for secondary structure composition using DICHROWEB and deconvoluted using CDSSTR.

[3] = system: platelet surface αIIbβ3 integrin; experiment: Flow cytometry, platelet surface αIIbβ3 integrin; format: cell-based, human; details: ADP 30 μM, sulfatide liposomes 50 μg/mL
Experimental: Washed platelets (2.5×10^5 platelets/μL) were kept unactivated or either activated with ADP (30 μM) or TRAP (10 μM). Both unactivated and activated platelets were incubated for 10 min at 23° C. with liposomes (50 μg/mL) either without (liposomes control) or with sulfatides, and N-PTB constructs (1 μM). Reactions were fixed with 1% formalin and incubated with PE- labeled CD62p anti-P-selectin (BioLegend) or FITC-labeled PAC-1 anti-integrin receptor (BD Transduction) antibodies. Bound antibodies were quantified using a FacsAria flow cytometer.
Once present, P-selectin is able to interact with sulfatides which triggers an internal phosphorylation pathway thought to be mediated by p38 (FIG. 12A) (Merten 2005). This cascade results in further de-granulation and an increase in surface P-selectin (Merten 2005). To monitor the de-granulation of platelets, two activation markers were evaluated using fluorescent antibodies specific for P-selectin and the αIIbβ3 integrin. Marker surface expression was quantified using fluorescence-activated cell sorting (FACS) analysis, and measuring the median fluorescent signal of 10,000 platelets. The median signal was used as our reference to quantify the data set as median values are less affected by the wide range of platelet signals and is therefore more representative of the population. […]

Kd [1]: ~1930 nM
B1: N-PTB: N-terminal phosphotyrosine binding domain (residues 1-241) of human Disabled-2 (Dab2), expressed as GST-fusion in E. coli (protein)
chain: MSNEVETSATNGQPDQQAAPKAPSKKEKKKGPEKTDEYLLARFKGDGVKYKAKLIGIDDVPDARGDKMSQDSMMKLKGMAARGRSQGQHKQRIWVNISLSGIKIIDEKTGVIEHEHPVNKISFIARDVTDNRAFGYVCGGEGQHQFFAIKTGQQAEPLVVDLKDLFQVIYNVKKKEEEKKKIEEASKAVENGSEALMILDDQTNKLKSGVDQMDLFGDMSTPPDLNSPTESKDILLVDLNS
effect on platelet adhesion to fibrinogen (Human washed platelets): did not significantly affect platelet adhesion to fibrinogen
Helix 1 [2]: 8%
Helix 2 [2]: 10%
Strand 1 [2]: 17%
Strand 2 [2]: 10%
Turns [2]: 23%
Unordered [2]: 31%
inhibition of sulfatide induced expression of αIIbβ3 integrin [3]: inhibition of sulfatide induced expression
inhibition of sulfatide induced expression of αIIbβ3 integrin ([3]; listed as N-PTB^4M): no inhibition
